In patent US20220025069A1:
Where two headings read alike, the source gives them in different places.

What was measured:
[1] = molecular target: human 4-1BB (CD137), cell-surface-expressed on Jurkat-hu4-1BB-NFkB-luc2 reporter cell line (human) (UniProt Q07011); assay: cell-based or functional assay; parameters: AUC of activation curve, NFκB-luciferase in Jurkat-hu4-1BB-NFκB-luc2, crosslinking by WM-266-4 cells: unit not given beside the values
[2] = molecular target: human 4-1BB (CD137), cell-surface-expressed on Jurkat-hu4-1BB-NFkB-luc2 reporter cell line (human) (UniProt Q07011); assay: flow cytometry, Jurkat-hu4-1BB-NFkB-luc2 cells, gMFI curve
[3] = molecular target: human HER2, cell-surface-expressed on KPL4 and NCI-N87 cells (human) (UniProt P04626); assay: flow cytometry, KPL4 cells, gMFI curve
[4] = molecular target: human HER2, cell-surface-expressed on KPL4 and NCI-N87 cells (human) (UniProt P04626); assay: flow cytometry, NCI-N87 cells, gMFI curve
[5] = molecular target: human Fibroblast Activation Protein (FAP), cell-surface-expressed on NIH/3T3-huFAP clone 19 cells (human) (UniProt Q12884); assay: flow cytometry, NIH/3T3-huFAP clone 19 cells, gMFI curve
[6] = molecular target: human 4-1BB (CD137), cell-surface-expressed on Jurkat-hu4-1BB-NFkB-luc2 reporter cell line (human) (UniProt Q07011); assay: cell-based or functional assay; parameters: unit not given beside the values
[7] = molecular target: human 4-1BB (CD137), cell-surface-expressed on Jurkat-hu4-1BB-NFkB-luc2 reporter cell line (human) (UniProt Q07011); assay: flow cytometry, Jurkat-hu4-1BB-NFkB-luc2 cells, gMFI curve; remark: listed apart in the source

DP47 huIgG1 PG LALA (antibody) showed an AUC of activation curve, NFκB-luciferase in Jurkat-hu4-1BB-NFκB-luc2, crosslinking by NIH/3T3-huFAP clone 19 cells [1] of 195, an AUC of activation curve, NFκB-luciferase in Jurkat-hu4-1BB-NFκB-luc2, crosslinking by WM-266-4 cells [1] of 191 and an Area under the curve (AUC) of binding curve [2] of 101. For the same substance, the Area under the curve (AUC) of binding curve [3] was 177, the Area under the curve (AUC) of binding curve [4] was 1130 and the Area under the curve (AUC) of binding curve [5] was 362. For the same substance, the AUC of activation curve, NFκB-luciferase in Jurkat-hu4-1BB-NFκB-luc2, crosslinking by KPL4 cells [6] was 253, the AUC of activation curve, NFκB-luciferase in Jurkat-hu4-1BB-NFκB-luc2, crosslinking by NCI-N87 cells [6] was 127 and the AUC of activation curve, NFκB-luciferase in Jurkat-hu4-1BB-NFκB-luc2, crosslinking by SK-Br3 cells [6] was 129. The Area under the curve (AUC) of binding curve [7] was 87.
